Test results taken from the supplement of paper PMC10126150.
± gives the standard deviation of the averaged measurements.

Test system: ATP
Assay: switch fluorescence ratio, 500 uM ATP over buffer (Cy3 cluster intensity, sum of 5 cycles each) (fold (ratio)); higher = stronger signal-on switching upon ATP binding; sequences stand for … in TCGTCGGCAGCGTCAGATGTGTATAAGAGACAGTTTTTTTTTTTTTTTTTTTTTTTTT…TC
Settings: aptamer strand: ATP DNA aptamer (quencher-CACCTGGGGGAGTATTGCGGAGGAAGG + anchor), 100 nM annealed; ATP concentration: 500 uM
Method in brief: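 Switching-strand clusters labelled with Cy3 on a modified Illumina MiSeq flow-cell were annealed to 100 nM quencher-labelled ATP aptamer, imaged in selection buffer, and re-imaged after 15 min with 500 uM ATP at 22 °C. This was done over five cycles with NaOH stripping and re-annealing in between. The fluorescence ratio is summed target-cycle over summed buffer-cycle Cy3 intensity per cluster, averaged per switch-domain sequence, excluding clusters outside 100-1000 RFU.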
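Also: ATP exposure 15 min at 22 °C before imaging.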

Sequence | switch fluorescence ratio
AGTAACGGTG | 1.034 ± 0.0019
AGTAAGATAA | 0.986 ± 0.058
AGTAAGCGAC | 1.063 ± 0.0014
AGTAAGGGCG | 0.992 ± 0.039
AGTAAGGGGT | 0.982 ± 0.021
AGTAAGGTGT | 1.13 ± 0.095
AGTAATAGGA | 1.03 ± 0.076
AGTACAATGC | 1.47 ± 0.18
AGTACCAATG | 1.03 ± 0.039
AGTACGATTG | 1 ± 0.023
AGTACGGATA | 1.03 ± 0.074
AGTACGGTGC | 1.02 ± 0.017
AGTACGGTGG | 0.985 ± 0.064
AGTACGTTAT | 1.14 ± 0.026
AGTACGTTGG | 0.966 ± 0.034
AGTACTAACT | 1.05 ± 0.048
AGTACTGACC | 1.23 ± 0.037
AGTAGAATGG | 1.001 ± 0.0004
AGTAGACGAC | 1.03 ± 0.042
AGTAGAGAAT | 1.04 ± 0.017
AGTAGAGGTT | 1.008 ± 0.0064
AGTAGCTCTC | 1.02 ± 0.013
AGTAGGGGTA | 0.974 ± 0.039
AGTAGGGTTA | 0.989 ± 0.029
AGTAGTAAAC | 1.02 ± 0.016

Sequence | switch fluorescence ratio
AGTAGTTGGC | 1.01 ± 0.12
AGTATCCAAA | 0.999 ± 0.027
AGTATCTTCG | 0.9923 ± 0.0027
AGTATGATTT | 0.98 ± 0.027
AGTATGTCGA | 1.01 ± 0.015
AGTATGTCGT | 1.03 ± 0.024
AGTATGTGGG | 0.996 ± 0.048
AGTATTCGCT | 0.975 ± 0.017
AGTATTGCTC | 1.01 ± 0.024
AGTATTTTG | 0.96 ± 0.013
AGTCAAAGGA | 1.012 ± 0.0051
AGTCAACTTG | 1.01 ± 0.053
AGTCAGAAAT | 1 ± 0.022
AGTCAGGCGA | 1.01 ± 0.078
AGTCATAAAA | 1.01 ± 0.045
AGTCCGTCGT | 1.026 ± 0.0068
AGTCCTTTGT | 1.02 ± 0.025
AGTCGCCCTG | 0.985 ± 0.05
AGTCGCGCGC | 0.989 ± 0.011
AGTCGGACGG | 1.01 ± 0.034
AGTCGGATTC | 1.09 ± 0.076
AGTCGGGAGA | 1.01 ± 0.015
AGTCGTGTCT | 0.967 ± 0.012
AGTCGTTGAG | 1.02 ± 0.033
AGTCGTTTTT | 0.98 ± 0.026

Sequence | switch fluorescence ratio
AGTCTAAGTG | 0.956 ± 0.021
AGTCTGAGAC | 1.013 ± 0.0089
AGTCTGGACT | 0.988 ± 0.025
AGTCTGGGGC | 0.942 ± 0.023
AGTCTGGTGC | 1.04 ± 0.032
AGTGACAACA | 1.007 ± 0.0021
AGTGAGGATC | 0.993 ± 0.032
AGTGAGTAAC | 0.9811 ± 0.0061
AGTGAGTGCT | 0.9751 ± 0.0059
AGTGCAAGAT | 1.08 ± 0.028
AGTGCATTGG | 1 ± 0.024
AGTGCGTGGG | 1.002 ± 0.0061
AGTGGACATC | 0.99098 ± 0.00034
AGTGGACGAC | 0.9912 ± 0.0079
AGTGGAGACG | 1.03 ± 0.012
AGTGGAGCTG | 1.02 ± 0.038
AGTGGATTCT | 1.004 ± 0.0022
AGTGGATTGG | 1.01 ± 0.045
AGTGGCCCCG | 1 ± 0.011
AGTGGCCGCG | 1.02 ± 0.016
AGTGGGGAGA | 1.02 ± 0.035
AGTGGGGATG | 1.01 ± 0.013
AGTGGGGGAG | 1.002 ± 0.0087
AGTGGGGGTG | 1.03 ± 0.043
AGTGGGGTCA | 0.989 ± 0.021

Sequence | switch fluorescence ratio
AGTGGGTGTT | 1.01 ± 0.045
AGTGGGTTTC | 0.9697 ± 0.0026
AGTGGTAAAG | 1.012 ± 0.0029
AGTGGTGGCT | 1.04 ± 0.018
AGTGGTGTGG | 0.993 ± 0.044
AGTGGTTCGG | 0.993 ± 0.015
AGTGGTTTGT | 0.949 ± 0.017
AGTGTAATTT | 0.973 ± 0.02
AGTGTACCGG | 0.997 ± 0.01
AGTGTATATG | 1.1 ± 0.099
AGTGTCTATT | 0.981 ± 0.0055
AGTGTGAAGG | 1.003 ± 0.0099
AGTGTGAGTT | 1.025 ± 0.01
AGTGTGGATT | 1.03 ± 0.015
AGTGTGGCCA | 1.02 ± 0.016
AGTGTGGTCT | 1.02 ± 0.045
AGTGTGTTCT | 1.02 ± 0.021
AGTGTGTTGC | 1.023 ± 0.0095
AGTGTTACGT | 0.989 ± 0.042
AGTGTTATTG | 0.976 ± 0.028
AGTGTTGCCG | 0.965 ± 0.069
AGTGTTGGGG | 0.998 ± 0.017
AGTGTTGTGG | 0.9904 ± 0.0021
AGTGTTTAAG | 1.036 ± 0.009
AGTGTTTCTG | 0.973 ± 0.049

Sequence | switch fluorescence ratio
AGTTAACGGT | 1.18 ± 0.19
AGTTAACTTT | 1.02 ± 0.028
AGTTAAGGGA | 0.991 ± 0.062
AGTTAATGAC | 0.997 ± 0.013
AGTTAATTTG | 0.9823 ± 0.0097
AGTTACGAAA | 1.11 ± 0.025
AGTTAGCTT | 1.02 ± 0.072
AGTTAGGAAA | 1.02 ± 0.032
AGTTAGGGTT | 0.999 ± 0.039
AGTTAGTAGT | 0.981 ± 0.021
AGTTAGTGGT | 0.978 ± 0.023
AGTTATAAAG | 0.986 ± 0.037
AGTTATGTTG | 0.995 ± 0.021
AGTTATTTGG | 1 ± 0.0047
AGTTCATTGG | 1.04 ± 0.059
AGTTCCATCG | 1.05 ± 0.047
AGTTCCGAGG | 1.12 ± 0.14
AGTTCGGTTT | 0.9581 ± 0.0039
AGTTCTAGGG | 0.971 ± 0.031
AGTTGAACCC | 0.9872 ± 0.0016
AGTTGATTGT | 0.9895 ± 0.0076
AGTTGCGGTT | 1.002 ± 0.0018
AGTTGCTCCT | 0.986 ± 0.024
AGTTGCTTGT | 1.01 ± 0.036
AGTTGGAGCG | 1.026 ± 0.0041

Sequence | switch fluorescence ratio
AGTTGGAGCT | 0.95964 ± 9.2e-05
AGTTGGCAAT | 1.24 ± 0.061
AGTTGGCGGA | 0.999 ± 0.024
AGTTGGCTTT | 1.018 ± 0.008
AGTTGGGATC | 1.036 ± 0.008
AGTTGGGGAA | 0.983 ± 0.031
AGTTGGGGAC | 1.012 ± 0.0071
AGTTGGTATT | 0.998 ± 0.015
AGTTGGTCTA | 1 ± 0.017
AGTTGTGGAG | 0.986 ± 0.018
AGTTGTGTGG | 1.02 ± 0.023
AGTTTAGGGT | 1.03 ± 0.054
AGTTTATCTG | 1.01 ± 0.04
AGTTTCCTAG | 0.971 ± 0.022
AGTTTCGGGA | 1 ± 0.033
AGTTTCGGTC | 1 ± 0.028
AGTTTCTTAG | 1.015 ± 0.0019
AGTTTGCTAG | 0.994 ± 0.034
AGTTTGCTTG | 0.993 ± 0.025
AGTTTGGACA | 0.997 ± 0.015
AGTTTGGGCC | 1.017 ± 0.0059
AGTTTGGTCA | 0.98 ± 0.021
AGTTTTCAAG | 1 ± 0.026
AGTTTTGAAG | 0.9906 ± 0.0096
AGTTTTGAG | 0.9928 ± 0.0097

Sequence | switch fluorescence ratio
AGTTTTGAGG | 1.001 ± 0.0016
AGTTTTGCGT | 1.01 ± 0.034
AGTTTTGGGT | 0.967 ± 0.02
AGTTTTTAAT | 0.999 ± 0.018
AGTTTTTATT | 1.03 ± 0.015
AGTTTTTTAT | 1 ± 0.022
ATAAAAAGGG | 1 ± 0.029
ATAAAAGGTG | 1.1 ± 0.074
ATAAAATTTA | 1.04 ± 0.03
ATAAAATTTT | 1 ± 0.03
ATAAACGACT | 1.06 ± 0.024
ATAAAGGCGA | 0.975 ± 0.043
ATAAAGGGCT | 0.988 ± 0.054
ATAAAGGTTG | 0.993 ± 0.016
ATAAAGTATG | 0.99 ± 0.018
ATAAAGTTTC | 1.03 ± 0.015
ATAAATACAG | 0.9959 ± 0.0042
ATAAATGTGT | 1.01 ± 0.041
ATAAATGTTA | 0.999 ± 0.011
ATAACACTTC | 1.03 ± 0.015
ATAACCGTGG | 1.05 ± 0.074
ATAACGAGTC | 1.04 ± 0.15
ATAACGTAGC | 1.11 ± 0.059
ATAACTTATA | 1.011 ± 0.0041
ATAAGACCCG | 0.98609 ± 0.00056

Sequence | switch fluorescence ratio
ATAAGAGTCT | 1.03 ± 0.094
ATAAGGAACG | 1.01 ± 0.061
ATAAGGAGAT | 0.9759 ± 0.0042
ATAAGGAGGA | 1.1 ± 0.23
ATAAGGCATG | 0.975 ± 0.021
ATAAGGCTCG | 0.966 ± 0.011
ATAAGGGAAC | 1.04 ± 0.017
ATAAGGGGAG | 0.999 ± 0.027
ATAAGGGGGA | 0.998 ± 0.022
ATAAGGGGTG | 1.02 ± 0.069
ATAAGGGTTC | 1.03 ± 0.043
ATAAGGTAG | 1.004 ± 0.0026
ATAAGTAAAG | 1.01 ± 0.021
ATAAGTATGA | 1.01 ± 0.034
ATAAGTCACG | 1.06 ± 0.028
ATAAGTGGCA | 0.944 ± 0.027
ATAAGTGGG | 0.983 ± 0.018
ATAAGTGTGT | 0.958 ± 0.047
ATAAGTGTTA | 0.9898 ± 0.0031
ATAAGTTGAT | 1.01 ± 0.03
ATAAGTTGCT | 0.968 ± 0.024
ATAAGTTTGG | 1.02 ± 0.033
ATAATAATGG | 1 ± 0.037
ATAATAGAGC | 1 ± 0.023
ATAATATGAG | 0.993 ± 0.056
